Test results: the supplement of paper PMC11246515
± gives the standard deviation of the averaged measurements.

Experiment: total protein half-life in vivo (active degradation + dilution); higher = more stable protein
[1] = E. coli NCM3722 delta-clpP delta-lon delta-hslV, growth: N-lim chemostat, doubling time 6 h
[2] = E. coli NCM3722 delta-clpP, growth: N-lim chemostat, doubling time 6 h
[3] = E. coli NCM3722 delta-lon, growth: N-lim chemostat, doubling time 6 h
[4] = wild type E. coli NCM3722, growth: C-lim chemostat, doubling time 3 h
[5] = wild type E. coli NCM3722, growth: C-lim chemostat, doubling time 6 h
[6] = wild type E. coli NCM3722, growth: C-lim chemostat, doubling time 12 h
[7] = wild type E. coli NCM3722, growth: N-lim chemostat, doubling time 12 h
[8] = wild type E. coli NCM3722, growth: P-lim chemostat, doubling time 6 h
[9] = wild type E. coli NCM3722, growth: P-lim chemostat, doubling time 12 h
[10] = E. coli NCM3722 delta-hslV, growth: N-lim chemostat, doubling time 6 h
[11] = E. coli NCM3722 delta-smpB, growth: N-lim chemostat, doubling time 6 h
[12] = wild type E. coli NCM3722, growth: N-lim chemostat, doubling time 6 h

| Sequence | total protein half-life in vivo [1] [h] | total protein half-life in vivo [2] [h] | total protein half-life in vivo [3] [h] | total protein half-life in vivo [4] [h] | total protein half-life in vivo [5] [h] | total protein half-life in vivo [6] [h] | total protein half-life in vivo [7] [h] | total protein half-life in vivo [8] [h] | total protein half-life in vivo [9] [h] | total protein half-life in vivo [10] [h] | total protein half-life in vivo [11] [h] | total protein half-life in vivo [12] [h] |
| --- | --- | --- | --- | --- | --- | --- | --- | --- | --- | --- | --- | --- |
| MNISDVAKITGLTSKAIRFYEEKGLVTPPMRSENGYRTYTQQHLNELTLLRQARQVGFNLEESGELVNLFNDPQRHSADVKRRTLEKVAEIERHIEELQSMRDQLLALANACPGDDSADCPIIENLSGCCHHRAG [P0A9G4] | 4.71 ± 0.63 | 1.45 | 2.12 ± 0.77 | 1.3 | 1.95 | 2.21 | 1.07 | 0.945 | 2.28 ± 0.59 | – | – | – |
| MNISSLRKAFIFMGAVAALSLVNAQSALAANESAKDMTCQEFIDLNPKAMTPVAWWMLHEETVYKGGDTVTLNETDLTQIPKVIEYCKKNPQKNLYTFKNQASNDLPN [P0AET2] | – | > 8 | – | – | – | – | – | – | – | – | – | – |
| MNIVITGGTGLIGRHLIPRLLELGHQITVVTRNPQKASSVLGPRVTLWQGLADQSNLNGVDAVINLAGEPIADKRWTHEQKERLCQSRWNITQKLVDLINASDTPPSVLISGSATGYYGDLGEVVVTEEEPPHNEFTHKLCARWEEIACRAQSDKTRVCLLRTGVVLAPDGGILGKMLPPFRLGLGGPIGSGRQYLAWIHIDDMVNGILWLLDNELRGPFNMVSPYPVRNEQFAHALGHALHRPAILRVPATAIRLLMGESSVLVLGGQRALPKRLEEAGFAFRWYDLEEALADVVR | 7.07 ± 0.37 | 6.1 ± 0.14 | 5.86 ± 0.6 | 3.25 ± 0.15 | 5.86 ± 0.16 | 11.09 ± 0.052 | – | 5.931 ± 0.026 | 12.38 ± 0.057 | 6.36 ± 0.6 | 5.71 ± 0.17 | 5.76 ± 0.032 |
| MNIVVLISGNGSNLQAIIDACKTNKIKGTVRAVFSNKADAFGLERARQAGIATHTLIASAFDSREAYDRELIHEIDMYAPDVVVLAGFMRILSPAFVSHYAGRLLNIHPSLLPKYPGLHTHRQALENGDEEHGTSVHFVTDELDGGPVILQAKVPVFAGDSEDDITARVQTQEHAIYPLVISWFADGRLKMHENAAWLDGQRLPPQGYAADE | 4.883 ± 0.024 | 4.97 ± 0.32 | 4.68 ± 0.53 | 2.94 ± 0.6 | 5.63 ± 2.2 | – | 9.87 ± 3.2 | 5.58 ± 0.33 | – | 5.15 ± 1.4 | 4.39 ± 0.18 | 4.49 ± 0.41 |
| MNIYTFDFDEIESQEDFYRDFSQTFGLAKDKVRDLDSLWDVLMNDVLPLPLEIEFVHLGEKTRRRFGALILLFDEAEEELEGHLRFNVRH | 4.37 ± 1.1 | 3.85 | 7.32 | 2.87 | 5.2 | 9.22 ± 0.45 | 10.2 | 4.26 | 10.1 ± 1.3 | 5.5 | 4.41 ± 0.68 | 4.83 ± 0.14 |
| MNKHTEHDTREHLLATGEQLCLQRGFTGMGLSELLKTAEVPKGSFYHYFRSKEAFGVAMLERHYAAYHQRLTELLQSGEGNYRDRILAYYQQTLNQFCQHGTISGCLTVKLSAEVCDLSEDMRSAMDKGARGVIALLSQALENGRENHCLTFCGEPLQQAQVLYALWLGANLQAKISRSFEPLENALAHVKNIIATPAV | 5.12 | 4.66 ± 0.51 | 6.18 | 3.13 ± 0.15 | 5.91 ± 0.12 | 11.7 | – | 5.25 | 12.7 | > 8 | 4.66 ± 0.14 | 7.06 |
